Measured values taken from paper PMC3320612, “Structural Basis of Cytotoxicity Mediated by the Type III Secretion Toxin ExoU from Pseudomonas aeruginosa” (PLoS Pathogens, 2012).
Where “and” joins values, the source holds several entries; their conditions need not be identical. Equal values may be shown once.

B1: SpcU(1–127) (domain or fragment)
chain: MIDTWLAQWGLRLPSSNDATLRLQPAEGPELVMERLEGGWLFVVELGLVPSGLPLGVILQLLQVNSPFSSLAPVKLAADDAGRLVLWAEARDGVDDVDALNRLHDRLREGHSRLVPLLEPTGELVPA
modifications: selenomethionine in the crystals (SAD on the selenium edge)
notes: SpcU, type IA T3SS chaperone of ExoU, Pseudomonas aeruginosa; full length is 1-137; stop codon introduced after residue 127; amplified from a clinical strain (GESPA 1999 collection); also called chaperone SpcU

Experiments:
[1] = molecular target: ExoU(30–687) (Pseudomonas aeruginosa (clinical strain, GESPA 1999 collection)) (UniProt O34208); test: native MS; purified ExoU∶SpcU complex, 15 µM in 20 mM ammonium acetate, electrospray, positive mode, Micro-TOF-Q
[2] = molecular target: the molecule itself; test: crystal structure; co-expressed, co-purified ExoU(30–687)∶SpcU(1–127) complex; crystals in 0.1 M KNO3, 20% PEG 3350; SAD on the selenium edge, C2 cell, 2.94 Å

Molecule | stoichiometry N (SpcU per ExoU (printed as ExoU∶SpcU)) [1] | binding result [2]
SpcU(1–127) (from UniProt O66100 1-127) (domain or fragment) | 1 and 2 | 
B1 |  | binds
